Positions count from the first letter of the chain named. In names and notes the source's numbering stands.
Assays:
[1] = substrate: NC(=O)c1ccc[n+]([C@@H]2O[C@H](COP(=O)(O)OP(=O)(O)OC[C@H]3O[C@@H](n4cnc5c(N)ncnc54)[C@H](OP(=O)(O)O)[C@@H]3O)[C@@H](O)[C@H]2O)c1; assay: GAPDH enzyme activity, coenzyme kinetics (NAD(P)H absorbance at 340 nm); format: biochemical, C. glutamicum; details: coenzyme varied, 25°C, pH 8.5, 1.5 mM glyceraldehyde-3-phosphate, 50 mM Na2HPO4, mean ± S.D.
Method: (§1) The above recombinant E. coli strains were cultured at 37°C in LB medium containing 100 mg/L kanamycine until an OD600 of 0.6 was reached. Then, (isopropyl-beta-D-thiogalactopyranoside (IPTG) was added to the medium to a final concentration of 0.1 mM, and the bacteria were cultured at 20°C for another 12-14 h. The E. coli cells were then harvested and washed and suspended in the buffer of 50 mM Na2HPO4 (pH 7.5), 0.2 mM EDTA and 0.1 mM dithiothreitol. Suspended cells were disrupted by sonication and centrifuged at 13.000 rpm for 1 h. The supernatant was purified by use of a Ni^2+ NTA column (GE Healthcare Bio-Sciences, Piscataway, NJ).
(§2) The enzyme activity of glyceraldehyde-3-phosphate dehydrogenase was determined by monitoring the change of NAD(P)H in absorbance at 340 nm at 25°C using a Multiskan® spectrophotometer (Thermo Scientific, Germany). Initial rate measurements were carried out in 50 mM triethanolamine hydrochloride buffer (pH 8.5), 0.2 mM EDTA, 50 mM Na2HPO4, 1.5 mM glyceraldehyde-3-phosphate (Clermont et al., 1993). When saturation could be reached, kinetic parameters were obtained from activity measurements with coenzyme concentrations ranging from 0.1 Km to 10 Km. Each rate measurement was run in triplicate. One unit of enzyme activity corresponds to one µmol of NAD(P)H formed per minute. Kinetic constants were obtained from non-linear regression data analysis and expressed as mean ± S.D.
(§3) The kinetic parameters determined for wild-type and mutated forms of glyceraldehyde-3-phosphate dehydrogenase are shown in Table 1. It can be seen that coenzyme specificity of glyceraldehyde-3-phosphate has been changed from NAD to NADP by the introduction of mutations at amino positions 35, 36, 37 and 192. More specifically, mutants comprising amino acid exchanges D35G/L36T/T37K, D35G/L36T/P192S, D35G/L36R/P192S, or D35G/L36T/T37K/P192S show a high catalytic efficiency and can utilize both NAD^+ and NADP^+. Table 1: Kinetic parameters of wild-type and mutated glyceraldehyde-3-phosphate dehydrogenase

[2] = substrate: NC(=O)c1ccc[n+]([C@@H]2O[C@H](COP(=O)(O)OP(=O)(O)OC[C@H]3O[C@@H](n4cnc5c(N)ncnc54)[C@H](O)[C@@H]3O)[C@@H](O)[C@H]2O)c1; assay: as above; format: biochemical, C. glutamicum; details: coenzyme varied, 25°C, pH 8.5, 1.5 mM glyceraldehyde-3-phosphate, 50 mM Na2HPO4, mean ± S.D.
Method: as §1, §2, §3

B1: C. glutamicum glyceraldehyde-3-phosphate dehydrogenase (gapA) variant D35G/L36T/T37K (Corynebacterium glutamicum ATCC 13032; D35G/L36T/T37K) (protein)
chain: MTIRVGINGFGRIGRNFFRAVLERSDDLEVVAVNGTKDNKTLSTLLKFDSIMGRLGQEVEYDDDSITVGGKRIAVYAERDPKNLDWAAHNVDIVIESTGFFTDANAAKAHIEAGAKKVIISAPASNEDATFVYGVNHESYDPENHNVISGASCTTNCLAPMAKVLNDKFGIENGLMTTVHAYTGDQRLHDAPHRDLRRARAAAVNIVPTSTGAAKAVALVLPELKGKLDGYALRVPVITGSATDLTFNTKSEVTVESINAAIKEAAVGEFGETLAYSEEPLVSTDIVHDSHGSIFDAGLTKVSGNTVKVVSWYDNEWGYTCQLLRLTELVASKL
notes: His-tag (inferred: pET-28a+ NdeI cloning, Ni-NTA purification) (N); His-tag (inferred: reverse primer has no stop codon and reads in frame into the vector's C-terminal His-tag) (C); made in house; host or cells: E. coli BL21 (DE3) CodonPlus RIPL
For B1, the Km ([1]; other: D35G/L36T/T37K) was 100 ± 12 µM, the kcat ([1]; other: D35G/L36T/T37K) was 8 ± 0.6 s⁻¹ and the kcat/Km ([1]; other: D35G/L36T/T37K) was 4800 ± 232 mM/min. The Km ([2]; other: D35G/L36T/T37K) was 470 ± 32 µM, the kcat ([2]; other: D35G/L36T/T37K) was 4.2 ± 0.55 s⁻¹ and the kcat/Km ([2]; other: D35G/L36T/T37K) was 536 ± 48 mM/min.

B2: C. glutamicum glyceraldehyde-3-phosphate dehydrogenase (gapA) variant D35G/L36T/T37K/P192S (Corynebacterium glutamicum ATCC 13032; D35G/L36T/P192S/T37K) (protein)
chain: B1 chain with P192S
notes: as for B1
With B2 the Km ([1]; other: D35G/L36T/T37K/P192S) was 70 ± 3 µM, the kcat ([1]; other: D35G/L36T/T37K/P192S) was 7.13 ± 0.75 s⁻¹ and the kcat/Km ([1]; other: D35G/L36T/T37K/P192S) was 5868 ± 352 mM/min. The Km ([2]; other: D35G/L36T/T37K/P192S) was 100 ± 14 µM, the kcat ([2]; other: D35G/L36T/T37K/P192S) was 2.73 ± 0.2 s⁻¹ and the kcat/Km ([2]; other: D35G/L36T/T37K/P192S) was 1640 ± 108 mM/min.

B3: C. glutamicum glyceraldehyde-3-phosphate dehydrogenase (gapA) variant D35G/L36R/P192S (Corynebacterium glutamicum ATCC 13032; D35G/L36R/P192S) (protein)
chain: B1 chain with T36R, K37T, P192S
notes: as for B1
In the case of B3, the Km ([1]; other: D35G/L36R/P192S) is reported as 100 ± 12 µM, the kcat ([1]; other: D35G/L36R/P192S) is reported as 6.48 ± 0.617 s⁻¹ and the kcat/Km ([1]; other: D35G/L36R/P192S) is reported as 3885 ± 247 mM/min. It also gave a Km ([2]; other: D35G/L36R/P192S) of 58 ± 2 µM, a kcat ([2]; other: D35G/L36R/P192S) of 2.87 ± 0.183 s⁻¹ and a kcat/Km ([2]; other: D35G/L36R/P192S) of 2954 ± 228 mM/min.

B4: C. glutamicum glyceraldehyde-3-phosphate dehydrogenase (gapA) variant D35G/L36R (Corynebacterium glutamicum ATCC 13032; D35G/L36R) (protein)
chain: B1 chain with T36R, K37T
notes: as for B1
Work on B4 yielded a Km ([1]; other: D35G/L36R) of 310 ± 34 µM, a kcat ([1]; other: D35G/L36R) of 5.8 ± 0.433 s⁻¹ and a kcat/Km ([1]; other: D35G/L36R) of 1123 ± 176 mM/min. For the same protein, the Km ([2]; other: D35G/L36R) was 180 ± 17 µM, the kcat ([2]; other: D35G/L36R) was 3.4 ± 0.367 s⁻¹ and the kcat/Km ([2]; other: D35G/L36R) was 1134 ± 132 mM/min.

B5: C. glutamicum glyceraldehyde-3-phosphate dehydrogenase (gapA) variant D35G (Corynebacterium glutamicum ATCC 13032; D35G) (protein)
chain: B1 chain with T36L, K37T
notes: as for B1
Protein B5 has a Km ([1]; other: D35G) of 830 ± 120 µM, a kcat ([1]; other: D35G) of 2.97 ± 0.183 s⁻¹ and a kcat/Km ([1]; other: D35G) of 215 ± 22 mM/min. It also gave a Km ([2]; other: D35G) of 540 ± 70 µM, a kcat ([2]; other: D35G) of 6.37 ± 0.533 s⁻¹ and a kcat/Km ([2]; other: D35G) of 707 ± 82 mM/min.

B6: C. glutamicum glyceraldehyde-3-phosphate dehydrogenase (gapA), Wild-type, SEQ ID NO:1 (Corynebacterium glutamicum ATCC 13032) (protein)
chain: B1 chain with G35D, T36L, K37T
notes: as for B1
With B6 the Km ([2]; other: Wild-type) was 48 ± 2 µM, the kcat ([2]; other: Wild-type) was 6.45 ± 0.467 s⁻¹ and the kcat/Km ([2]; other: Wild-type) was 8063 ± 540 mM/min.

B7: C. glutamicum glyceraldehyde-3-phosphate dehydrogenase (gapA) variant D35G/L36T (Corynebacterium glutamicum ATCC 13032; D35G/L36T) (protein)
chain: B1 chain with K37T
notes: as for B1
B7 showed a Km ([1]; other: D35G/L36T) of 280 ± 16 µM, a kcat ([1]; other: D35G/L36T) of 5.87 ± 0.867 s⁻¹ and a kcat/Km ([1]; other: D35G/L36T) of 1257 ± 118 mM/min. The Km ([2]; other: D35G/L36T) was 220 ± 38 µM, the kcat ([2]; other: D35G/L36T) was 4.77 ± 0.617 s⁻¹ and the kcat/Km ([2]; other: D35G/L36T) was 1300 ± 154 mM/min.

B8: C. glutamicum glyceraldehyde-3-phosphate dehydrogenase (gapA) variant D35G/L36T/P192S (Corynebacterium glutamicum ATCC 13032; D35G/L36T/P192S) (protein)
chain: B1 chain with K37T, P192S
notes: as for B1
B8 gave a Km ([1]; other: D35G/L36T/P192S) of 70 ± 3 µM, a kcat ([1]; other: D35G/L36T/P192S) of 6.58 ± 0.467 s⁻¹ and a Km ([2]; other: D35G/L36T/P192S) of 120 ± 4 µM. For the same protein, the kcat ([2]; other: D35G/L36T/P192S) was 3.78 ± 0.283 s⁻¹ and the kcat/Km ([2]; other: D35G/L36T/P192S) was 1952 ± 113 mM/min.

From patent publication EP2559758A1, “Modified glyceraldehyde-3-phosphate dehydrogenase from corynebacterium glutamicum and uses thereof” (Technische Universität Hamburg-Harburg, priority 2011, dated 2013)
